# Source: patent US20180125988
# T1: AC1254 (CCD1-BSRS1-AE713)
# T1 chain: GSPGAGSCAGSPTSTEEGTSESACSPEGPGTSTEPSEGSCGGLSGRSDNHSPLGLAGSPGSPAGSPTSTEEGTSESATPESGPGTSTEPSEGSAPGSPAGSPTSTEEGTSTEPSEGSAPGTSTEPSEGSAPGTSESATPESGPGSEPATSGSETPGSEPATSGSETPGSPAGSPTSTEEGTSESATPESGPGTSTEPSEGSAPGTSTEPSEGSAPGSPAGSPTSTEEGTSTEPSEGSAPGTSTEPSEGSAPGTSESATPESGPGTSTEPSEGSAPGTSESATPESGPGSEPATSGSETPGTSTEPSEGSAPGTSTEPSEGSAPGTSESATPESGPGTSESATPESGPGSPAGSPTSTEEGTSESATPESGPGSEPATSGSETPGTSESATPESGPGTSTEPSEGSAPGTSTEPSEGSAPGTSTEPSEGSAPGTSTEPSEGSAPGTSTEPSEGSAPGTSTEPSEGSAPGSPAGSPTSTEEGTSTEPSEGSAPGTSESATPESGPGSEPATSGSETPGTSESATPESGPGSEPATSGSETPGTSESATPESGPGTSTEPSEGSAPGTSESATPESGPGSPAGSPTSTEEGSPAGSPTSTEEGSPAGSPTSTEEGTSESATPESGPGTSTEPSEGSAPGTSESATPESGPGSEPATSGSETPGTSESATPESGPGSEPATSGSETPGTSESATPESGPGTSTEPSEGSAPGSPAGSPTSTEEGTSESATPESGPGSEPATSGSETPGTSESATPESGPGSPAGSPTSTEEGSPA
# T2: XTEN_AE864
# T2 chain: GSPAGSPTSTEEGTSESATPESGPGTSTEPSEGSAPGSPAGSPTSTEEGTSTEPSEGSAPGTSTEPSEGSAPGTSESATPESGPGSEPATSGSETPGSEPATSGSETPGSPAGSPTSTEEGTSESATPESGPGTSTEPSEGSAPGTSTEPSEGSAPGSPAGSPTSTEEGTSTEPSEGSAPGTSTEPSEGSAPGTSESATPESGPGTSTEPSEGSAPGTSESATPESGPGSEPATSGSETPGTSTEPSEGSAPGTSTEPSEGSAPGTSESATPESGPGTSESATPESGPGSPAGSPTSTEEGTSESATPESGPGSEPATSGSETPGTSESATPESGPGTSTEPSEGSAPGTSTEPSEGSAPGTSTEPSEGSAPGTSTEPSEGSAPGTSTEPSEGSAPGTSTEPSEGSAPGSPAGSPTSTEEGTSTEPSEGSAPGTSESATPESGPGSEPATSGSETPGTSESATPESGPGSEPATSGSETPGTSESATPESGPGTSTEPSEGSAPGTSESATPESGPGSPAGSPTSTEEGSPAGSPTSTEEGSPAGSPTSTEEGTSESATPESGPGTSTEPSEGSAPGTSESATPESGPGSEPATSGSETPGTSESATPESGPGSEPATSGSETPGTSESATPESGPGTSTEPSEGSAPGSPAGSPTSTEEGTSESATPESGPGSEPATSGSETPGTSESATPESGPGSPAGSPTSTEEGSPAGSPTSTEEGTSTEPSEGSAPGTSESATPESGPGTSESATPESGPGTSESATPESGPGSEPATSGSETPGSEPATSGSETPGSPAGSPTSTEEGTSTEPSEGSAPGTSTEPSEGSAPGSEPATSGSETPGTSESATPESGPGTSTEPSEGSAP
# What was measured:
# [1] = target: T1, AC1254 (CCD1-BSRS1-AE713)
# [2] = target: T2, XTEN_AE864
protein,measurement,setting,value
recombinant human MMP-7 (protein) YSLFPNSPKWTSKVVTYRIVSYTRDLPHITVDRLVSKALNMWGKEIPLHFRKVVWGTADIMIGFARGAHGDSYPFDGPGNTLAHAFAPGTGLGGDAHFDEDERWTDGSSLGINFLYAATHELGHSLGMGHSSDPNAVMYPTYGNGDPQNFKLSQDDIKGIQKLYGKRSNSRKK,"proteolytic cleavage at the PCM (SDS-PAGE, C4 RP-HPLC); enzyme:substrate 1:200, 2 h, 37 C",[1],"all proteases tested here cleaved the construct as intended, with varying degree of catalytic efficiency"
recombinant mouse MMP-9 (protein) FQTFKGLKWDHHNITYWIQNYSEDLPRDMIDDAFARAFAVWGEVAPLTFTRVYGPEADIVIQFGVAEHGDGYPFDGKDGLLAHAFPPGAGVQGDAHFDDDELWSLGKGVVIPTYYGNSNGAPCHFPFTFEGRSYSACTTDGRNDGTPWCSTTADYDKDGKFGFCPSERLYTEHGNGEGKPCVFPFIFEGRSYSACTTKGRSDGYRWCATTANYDQDKLYGFCPTRVDATVVGGNSAGELCVFPFVFLGKQYSSCTSDGRRDGRLWCATTSNFDTDKKWGFCPDQGYSLFLVAAHEFGHALGLDHSSVPEALMYPLYSYLEGFPLNKDDIDGIQYLYGRGSKPDPRPPATTTTEPQPTAPPTMCPTIPPTAYPTVGPTVGPTGAPSPGPTSSPSPGPTGAPSPGPTAPPTAGSSEASTESLSPADNPCNVDVFDAIAEIQGALHFFKDGWYWKFLNHRGSPLQGPFLTARTWPALPATLDSAFEDPQTKRVFFFSGRQMWVYTGKTVLGPRSLDKLGLGPEVTHVSGLLPRRLGKALLFSKGRVWRFDLKSQKVDPQSVIRVDKEFSGVPWNSHDIFQYQDKAYFCHGKFFWRVSFQNEVNKVDHEVNQVDDVGYVTYDLLQCP,"proteolytic cleavage at the PCM (SDS-PAGE, C4 RP-HPLC); enzyme:substrate 1:6711, 2 h, 37 C",[1],"all proteases tested here cleaved the construct as intended, with varying degree of catalytic efficiency"
recombinant human matriptase (protein) VVGGTDADEGEWPWQVSLHALGQGHICGASLISPNWLVSAAHCYIDDRGFRYSDPTQWTAFLGLHDQSQRSAPGVQERRLKRIISHPFFNDFTFDYDIALLELEKPAEYSSMVRPICLPDASHVFPAGKAIWVTGWGHTQYGGTGALILQKGEIRVINQTTCENLLPQQITPRMMCVGFLSGGVDSCQGDSGGPLSSVEADGRIFQAGVVSWGDGCAQRNKPGVYTRLPLFRDWIKENTGV,"proteolytic cleavage at the PCM (SDS-PAGE, C4 RP-HPLC); enzyme:substrate 1:12.5, 2 h, 37 C",[1],"all proteases tested here cleaved the construct as intended, with varying degree of catalytic efficiency"
human neutrophil elastase (protein) IVGGRRARPHAWPFMVSLQLRGGHFCGATLIAPNFVMSAAHCVANVNVRAVRVVLGAHNLSRREPTRQVFAVQRIFENGYDPVNLLNDIVILQLNGSATINANVQVAQLPAQGRRLGNGVQCLAMGWGLLGRNRGIASVLQELNVTVVTSLCRRSNVCTLVRGRQAGVCFGDSGSPLVCNGLIHGIASFVRGGCASGLYPDAFAPVAQFVNWIDSIIQ,"proteolytic degradation (SDS-PAGE), elastase:XTEN 1:100, 2 h, 37 C",[2],XTEN_AE864 was completely digested by neutrophil elastase at the 1:100 molar ratio
same,"proteolytic degradation (SDS-PAGE), elastase:XTEN 1:1000, 2 h, 37 C",[2],Partial degradation was observed for XTEN_AE864 when incubating with neutrophil elastase at the 1:1000 molar ratio
